Here are results for two proteins from article PMC5454378, “Histone deacetylase 10 structure and molecular function as a polyamine deacetylase” (Nature Communications, 2017).

The Km is the substrate concentration at which the rate is half of its maximum. One may read the kcat as the number of substrate molecules converted per active site and unit of time at saturation. Usually kcat/Km stands for the turnover number divided by the Michaelis constant.

Test in all cases: purified protein, by the assay type
Substrate in series [1]: CC(=O)NCCCC[C@H](NC(=O)[C@H](C)NC(=O)CNC(C)=O)C(=O)Nc1ccc2c(C)cc(=O)oc2c1
Set-up: fluorogenic AMC-conjugated acetyllysine peptide deacetylation, steady-state kinetics. An excerpt: To determine steady-state kinetic parameters for the hydrolysis of a variety of acetylpolyamine and acetyllysine substrates, we prepared full-length recombinant HDAC10 from human (H. sapiens, hHDAC10) and zebrafish (D. rerio, zHDAC10). The CDs of these orthologues are highly similar based on 63%/79% sequence identity/similarity; only full-length constructs yielded soluble proteins. We first assayed the lysine deacetylase activity of these constructs against two commercially available aminomethylcoumarin (AMC)-conjugated fluorogenic acetyllysine peptides, GAK(ac)-AMC and RGK(ac)-AMC (molecular structures of all substrates are shown in Supplementary Fig. 2). […] These measurements were consistent with earlier studies reporting that HDAC10 activity was not measurable using fluorogenic peptide substrates. We also tested activity with 11 non-fluorogenic acetyllysine substrates using a […] chromatography–mass spectrometry (LC–MS)-based discontinuous assay[17] to avoid potential steric clashes that might occur with the bulky AMC group. These substrates included K(ac)NL and GAK(ac)NLQ, which mimic the peptide segment containing K73 in the proposed HDAC10 substrate MutS homologue 2 (MSH2)[22]. Again, we observed no or very low catalytic activity (Fig. 2 and Supplementary Table 1). In comparison with its closest relative, the cytosolic isozyme HDAC6 (ref. [17]), HDAC10 was clearly not an efficient lysine deacetylase.

Substrate in series [2]: CC(=O)NCCCCNCCCN
Set-up: steady-state kinetics of acetylpolyamine deacetylation, discontinuous LC-MS after dansyl chloride derivatization. The settings on record: 50.0 °C. How it is done: (§1) To study steady-state kinetics with non-fluorogenic peptide substrates and acetylpolyamines, a discontinuous LC–MS was employed based on the protocol of assaying nonfluorogenic acetyllysine peptide substrates for HDAC6 (ref. [17]). Assays were performed in triplicate. Briefly, 5 μl of enzyme (0.050–20 μM) in HEPES buffer (20 mM HEPES (pH 7.5), 100 mM NaCl, 5 mM KCl, 1 mM MgCl2) was added to 35 μl of substrate solution to initiate the reaction. After incubation for 15–60 min at room temperature, the reaction was quenched by addition of 50 μl of 20 mM dansyl chloride dissolved in acetonitrile followed by 10 μl of NaHCO3 (1.6 M, pH 10.0). The deacetylation products were derivatized with dansyl chloride at 50 °C for 2 hrs. The deacetylation products were detected by LC–MS using a Waters SQD equipped with an Acquity UPLC (Waters, Milford, MA, USA) and quantified by using the standard curves generated from the mass signals of the corresponding deacetylated polyamines and peptides. Inhibition of HDAC10 activity was measured by using 0.49 μM zHDAC10 with 192 μM N^8-acetylspermidine. Data were analysed by logistic regression for IC50 determination and the inhibition constant Ki was calculated based on the Cheng-Prusoff equation, Ki=IC50 / (1+[S]/KM)[45]. Assays were performed in triplicate at room temperature. We next tested the PDAC activity of hHDAC10 and zHDAC10 against several polyamine substrates using the LC–MS assay (Fig. 2, Supplementary Fig. 3 and Supplementary Table 1). […] For hHDAC10 and zHDAC10, kcat/KM=2,900±200 and 4,600±300 M^−1 s^−1, respectively; in comparison, N^1-acetylspermidine was a poor substrate with kcat/KM=24±5 and 7±2 M^−1 s^−1, respectively. Substrate specificity trends observed for zHDAC10 and hHDAC10 matched those of the previously reported mammalian N^8-acetylspermidine deacetylase activity. […] As a negative control, we examined the N^8-acetylspermidine deacetylase activity of human and zebrafish HDAC6 (ref. [17]). HDAC6 preferentially catalyses the deacetylation of the peptide substrate RGK(ac)-AMC with a catalytic efficiency >100-fold greater than that for the deacetylation of N^8-acetylspermidine. Therefore, HDAC6 is clearly an acetyllysine deacetylase and HDAC10 is an N^8-acetylspermidine deacetylase. It is notable that the molecular function of HDAC10 coincides with the cellular function of the cytosolic PDAC indicated in Fig. 1a.

Substrate in series [3]: CC(=O)NCCCCN
Set-up: steady-state kinetics of acetylpolyamine deacetylation, discontinuous LC-MS after dansyl chloride derivatization. The settings on record: 50.0 °C. How it is done: as §1

Substrate in series [4]: CC(=O)NCCCCCN
Also on record: steady-state kinetics of acetylpolyamine deacetylation, discontinuous LC-MS after dansyl chloride derivatization. As to conditions: 50.0 °C. How it is done: as §1

B1: hHDAC6 CD12 (Homo sapiens) (protein)
chain: MTSTGQDSTTTRQRRSRQNPQSPPQDSSVTSKRNIKKGAVPRSIPNLAEVKKKGKMKKLGQAMEEDLIVGLQGMDLNLEAEALAGTGLVLDEQLNEFHCLWDDSFPEGPERLHAIKEQLIQEGLLDRCVSFQARFAEKEELMLVHSLEYIDLMETTQYMNEGELRVLADTYDSVYLHPNSYSCACLASGSVLRLVDAVLGAEIRNGMAIIRPPGHHAQHSLMDGYCMFNHVAVAARYAQQKHRIRRVLIVDWDVHHGQGTQFTFDQDPSVLYFSIHRYEQGRFWPHLKASNWSTTGFGQGQGYTINVPWNQVGMRDADYIAAFLHVLLPVALEFQPQLVLVAAGFDALQGDPKGEMAATPAGFAQLTHLLMGLAGGKLILSLEGGYNLRALAEGVSASLHTLLGDPCPMLESPGAPCRSAQASVSCALEALEPFWEVLVRSTETVERDNMEEDNVEESEEEGPWEPPVLPILTWPVLQSRTGLVYDQNMMNHCNLWDSHHPEVPQRILRIMCRLEELGLAGRCLTLTPRPATEAELLTCHSAEYVGHLRATEKMKTRELHRESSNFDSIYICPSTFACAQLATGAACRLVEAVLSGEVLNGAAVVRPPGHHAEQDAACGFCFFNSVAVAARHAQTISGHALRILIVDWDVHHGNGTQHMFEDDPSVLYVSLHRYDHGTFFPMGDEGASSQIGRAAGTGFTVNVAWNGPRMGDADYLAAWHRLVLPIAYEFNPELVLVSAGFDAARGDPLGGCQVSPEGYAHLTHLLMGLASGRIILILEGGYNLTSISESMAACTRSLLGDPPPLLTLPRPPLSGALASITETIQVHRRYWRSLRVMKVEDREGPSSSKLVTKKAPQPAKPRLAERMTTREKKVLEAGMGKVTSASFGEESTPGQTNSETAVVALTQDQPSEAATGGATLAQTISEAAIGGAMLGQTTSEEAVGGATPDQTTSEETVGGAILDQTTSEDAVGGATLGQTTSEEAVGGATLAQTTSEAAMEGATLDQTTSEEAPGGTELIQTPLASSTDHQTPPTSPVQGTTPQISPSTLIGSLRTLELGSESQGASESQAPGEENLLGEAAGGQDMADSMLMQGSRGLTDQAIFYAVTPLPWCPHLVAVCPIPAAGLDVTQPCGDCGTIQENWVCLSCYQVYCGRYINGHMLQHHGNSGHPLVLSYIDLSAWCYYCQAYVHHQALLDVKNIAHQNKFGEDMPHPH
notes: both catalytic domains CD1-CD2
For B1, in series [1], the Km was determined as 14 ± 2 µM, the kcat amounted to 0.039 ± 0.007 s⁻¹ and the kcat/Km was 2800 ± 400 M⁻¹ s⁻¹.

B2: zHDAC10Δ (Danio rerio) (protein)
chain: MASGSALIFDEEMSRYKLLWTDPACEIEVPERLTVSYEALRTHGLAQRCKAVPVRQATEQEILLAHSEEYLEAVKQTPGMNVEELMAFSKKYNDVYFHQNIYHCAKLAAGATLQLVDSVMKREVRNGMALVRPPGHHSQRSAANGFCVFNNVAIAALYAKKNYNLNRILIVDWDVHHGQGIQYCFEEDPSVLYFSWHRYEHQSFWPNLPESDYSSVGKGKGSGFNINLPWNKVGMTNSDYLAAFFHVLLPVAYEFDPELVIVSAGFDSAIGDPEGEMCALPEIFAHLTHLLMPLAAGKMCVVLEGGYNLTSLGQSVCQTVHSLLGDPTPRISGLGTACDSALESIQNVRNVQSSYWSSFKHLAQSETNPKRPRLDATNGGPKESSEPASESNPKKTAQDIVWPEPLKRMPASVRTVVVPPPGVELTLPKNCQHSGDISESTAKEVQRIRDKHFHDLTDQNILRSLGNIISVLDRMMRSDEVCNGCVVVSDLSVSVQCALQHALTEPAERVLVVYVGDGELPVKTNDGKVFLVQICTKETEDKCVNRLSLCLREGESLTAGFMQALLGLILPVAYEFNPALVLGIVGETAAKTGLMTVWGHMTCLIQGLARGRTLTLLQGYDKDLLELTVSALSGASISPLGPLRALKPEDVEMMEKQRQRLQERWGLLRCTVSES
notes: proteolytically (trypsin) nicked zHDAC10, heterodimer of PDAC and pseudo-deacetylase domains
As to B2, the Km stood at 70 ± 30 µM in series [2], 80 ± 30 µM in series [3], 60 ± 10 µM in series [4] and 40 ± 20 µM in series [1]. Also, the kcat in series [2] came out at 0.06 ± 0.007 s⁻¹; in series [3] it was 0.081 ± 0.009 s⁻¹; in series [4], 0.036 ± 0.002 s⁻¹. In addition, the values for the kcat/Km in series [2], in series [3] and in series [4] were 800 ± 100 M⁻¹ s⁻¹, 980 ± 90 M⁻¹ s⁻¹ and 600 ± 80 M⁻¹ s⁻¹, respectively.
